Results published in publication PMC12051786, “Photoisomerization of Azobenzene‐Extended Charybdotoxin for the Optical Control of Kv1.2 Potassium Channel Activity” (Angewandte Chemie (International Ed. in English), 2025).

Assays:
[1] = molecular target: mouse Kv1.2 channel (mouse) (UniProt P63141)
[2] = molecular target: mouse Kv1.2 channel (mouse) (UniProt P63141); remark: listed apart in the source
[3] = Photo-isomerization kinetics (trans/cis) followed by absorbance under illumination; format: physicochemical; settings: 9.5 mW cm−2, 100% DMSO
Text: Next, we evaluated for all monomers and dimers the trans‐cis isomerization reactions under various wavelengths of illumination. Illuminating the ChTx‐Ah^14‐Az1 monomer at λ = 365 nm at 9.5 mW cm^−2, to favor the cis configuration, yielded a significant time‐dependent change in the absorbance properties of the peptide, characterized by a decrease of the absorbance band maximum centered at 340 nm (Figure 4a).

[4] = Thermal stability of the cis isomer in the dark; settings: Figure S3

Sequence of mouse Kv1.2 channel (mouse) (P63141 whole entry): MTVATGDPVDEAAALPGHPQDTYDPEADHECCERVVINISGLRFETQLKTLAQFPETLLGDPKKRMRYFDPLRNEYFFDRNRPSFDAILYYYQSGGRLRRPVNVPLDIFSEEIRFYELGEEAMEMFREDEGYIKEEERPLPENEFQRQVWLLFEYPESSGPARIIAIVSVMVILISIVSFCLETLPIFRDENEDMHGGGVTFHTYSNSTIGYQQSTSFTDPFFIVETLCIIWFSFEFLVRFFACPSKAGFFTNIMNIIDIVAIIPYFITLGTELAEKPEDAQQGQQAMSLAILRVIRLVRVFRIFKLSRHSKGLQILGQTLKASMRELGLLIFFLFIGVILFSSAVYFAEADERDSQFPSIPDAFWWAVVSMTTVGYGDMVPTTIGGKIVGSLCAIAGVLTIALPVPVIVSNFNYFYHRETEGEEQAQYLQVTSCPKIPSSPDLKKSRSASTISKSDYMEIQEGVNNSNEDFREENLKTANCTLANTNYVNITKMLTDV
Sequence of charybdotoxin (P13487 23-59): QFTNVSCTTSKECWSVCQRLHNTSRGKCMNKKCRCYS
Sequence of ChTx‐Ah^9 (P13487 whole entry, looked up): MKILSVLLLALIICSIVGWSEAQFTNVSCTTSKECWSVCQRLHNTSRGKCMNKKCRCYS
Sequence of ChTx‐Ah^12 (P13487 whole entry, looked up): as above

ChTx‐Ah^9 (from UniProt P13487 23-59) (peptide)
IC50 of inhibition of K+ current, L929 cells stably overexpressing mouse Kv1.2, automated patch-clamp [1]: 6.3 nM

charybdotoxin (from UniProt P13487 23-59) (peptide)
percent block of Kv1.2 current at 10 nM peptide, patch-clamp [2]: 62.2% | IC50 of inhibition of K+ current, L929 cells stably overexpressing mouse Kv1.2, automated patch-clamp [1]: 5 nM

ChTx‐Ah^19 (from UniProt P13487 23-59) (peptide)
IC50 of inhibition of K+ current, L929 cells stably overexpressing mouse Kv1.2, automated patch-clamp [1]: 11.5 nM

ChTx‐Ah^12 (from UniProt P13487 23-59) (peptide)
IC50 of inhibition of K+ current, L929 cells stably overexpressing mouse Kv1.2, automated patch-clamp [1]: 1.2 nM

ChTx‐Ah^14 (from UniProt P13487 23-59) (peptide)
percent block of Kv1.2 current at 10 nM peptide, patch-clamp [2]: 52% | IC50 of inhibition of K+ current, L929 cells stably overexpressing mouse Kv1.2, automated patch-clamp [1]: 9.8 nM

C#CCNC(=O)c1ccc(/N=N/c2ccc(C(=O)NCC#C)cc2)cc1 [Az1, (E)‐4,4′‐(diazene‐1,2‐diyl)bis(N‐(prop‐2‐yn‐1‐yl)benzamide)]
Time at which formation of the cis isomer saturates ([3]; irradiation at 340 nm): 300 s | Time for recovery of trans-enriched compound on reverse-switching ([3]; irradiation at 435 nm): ≈ 60 s | Thermal stability of the cis isomer [4]: remarkably stable
